T1: human IL-25 expressed with a C-terminal myc-myc-hexahistidine tag (human)
T1 construct: also called hIL-25-MMH; Human IL-25-MMH
T1 chain: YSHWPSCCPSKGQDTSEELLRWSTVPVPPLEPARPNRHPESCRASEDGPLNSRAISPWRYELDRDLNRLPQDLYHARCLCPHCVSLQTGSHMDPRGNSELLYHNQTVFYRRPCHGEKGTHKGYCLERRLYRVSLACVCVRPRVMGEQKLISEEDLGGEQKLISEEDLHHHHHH

T2: rat IL-25 expressed with a C-terminal myc-myc-hexahistidine tag (rat)
T2 construct: also called Rat IL-25-MMH
T2 chain: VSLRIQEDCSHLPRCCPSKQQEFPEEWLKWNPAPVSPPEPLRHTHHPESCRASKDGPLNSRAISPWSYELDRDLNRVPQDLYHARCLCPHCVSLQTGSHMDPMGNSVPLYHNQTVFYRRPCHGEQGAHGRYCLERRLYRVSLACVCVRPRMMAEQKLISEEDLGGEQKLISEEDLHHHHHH

T3: monkey IL-25 expressed with a C-terminal myc-myc-hexahistidine tag (M. fascicularis (cynomolgus monkey))
T3 chain: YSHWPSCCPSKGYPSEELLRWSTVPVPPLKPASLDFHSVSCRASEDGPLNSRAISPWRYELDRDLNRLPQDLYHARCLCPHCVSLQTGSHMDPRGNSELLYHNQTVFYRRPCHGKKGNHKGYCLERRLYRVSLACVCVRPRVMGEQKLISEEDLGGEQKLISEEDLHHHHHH

T4: mouse IL-25 expressed with a C-terminal myc-myc-hexahistidine tag (mouse)
T4 chain: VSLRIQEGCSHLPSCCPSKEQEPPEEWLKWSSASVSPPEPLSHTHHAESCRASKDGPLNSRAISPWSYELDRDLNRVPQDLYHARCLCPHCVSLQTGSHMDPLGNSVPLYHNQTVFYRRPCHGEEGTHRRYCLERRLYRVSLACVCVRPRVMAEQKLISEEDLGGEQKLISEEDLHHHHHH

B1: H4H10897P (antibody, human IgG4, V domains shown)
VH: QVQLQESGPGLVKPSETLSLTCTVSGGSISDYYWSWIRQPPGKGLEWIGHIYYSGSTNHNPSLKSRVAISVDTSKNQFSLRLYSVTAADTAVYYCARDGYSSSSGFYYFGMDVWGQGTTVTVSS
VL: DIQLTQSPSFLSASVGDRVTITCWASQDINSYLAWYQQKPGKAPKLLIFAASTLQGGVPSRFSGSGSGTEFTLTISSLQPEDFATYYCQHLSSFPPTFGQGTRLEIK
notes: H4H prefix = human IgG4 Fc
B2: H4H10863P (antibody, human IgG4, V domains shown)
VH: QVQLVQSGAEVKKPGASVKVSCKASGYTFSSYGISWVRQAPGQGLEWMGWISAYNDNTQYAQKFQGRVTMTTDTSTSTAYMELRSLRSDDTAVYYCARVPLQWFGESFDHWGQGTLVTVSS
VL: DIQMTQSPSSLSASVGDRVTITCRASQDINNYLNWFQQKPGKAPKLLIFSTSSLQSGVPSRFSGSGSGTDFTLTISSLQSEDFATYYCQQTFITPLTFGGGTKVEIK
notes: H4H prefix = human IgG4 Fc
B3: H4H10900P (antibody, human IgG4, V domains shown)
VH: QVQLQESGPGLVRPSETLSLICTVSGGSINSYYWSWIRQPPGKGLEWIGYIYYSGSTNYNPSLKSRVTISGDTSKNQFSLKLSSVTAADTAVYYCARGVIWNYELREFDYWGQGTLVTVSS
VL: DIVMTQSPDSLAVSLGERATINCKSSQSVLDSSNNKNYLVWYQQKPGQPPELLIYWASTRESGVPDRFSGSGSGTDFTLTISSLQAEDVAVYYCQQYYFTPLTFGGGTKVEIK
notes: H4H prefix = human IgG4 Fc
B4: H4H10905P (antibody, human IgG4, V domains shown)
VH: QVQLVQSGAEVKKPGTSVKVSCKASGYTFTNYGISWVRQAPGQGLEWLGWISAYNDNTDYAQKLQARVTMTTDTFTSTAYMDLRSLRSDDTAVYYCARVPITGTTSSFDFWGQGTLVTVSS
VL: DIQMTQSPSSLSASVGDRVTISCRASQTIYSYLNWFQQKPGKAPKLLIYDASSLQSGVPSRFSGSGSGTHFTLTISSLQPEDFATYFCQQTYSTPLTFGGGTKVEIK
notes: H4H prefix = human IgG4 Fc

Molecular target: T1, human IL-25 expressed with a C-terminal …
Test: competition ELISA, 2 nM hIL-25-MMH binding to coated hIL-17RB-hFc
Description: (§1) Data analysis was performed using a sigmoidal dose-response model within Prism™ software (GraphPad). […] The absorbance values of the wells containing the highest concentration for each antibody were used to determine the percent maximum blockade.

B1 was tested. Which “% Maximum blocking of 200 nM antibody” value did it give?
Its value is 94%.

How did the “% Maximum blocking of 200 nM antibody” value turn out when B2 was run?
Its value is 87%.

B3 was tested. Which “% Maximum blocking of 200 nM antibody” value did it give?
The value was 90%.

With B4 as the binder, how does the “% Maximum blocking of 200 nM antibody” value read?
The value was 86%.

Molecular target: T1, human IL-25 expressed with a C-terminal …
Test: cell-based or functional assay

Which results are given for B3?
IC50 values of antibodies for blocking IL-5 release from Donor #727058-059: 0.0392 nM; IC50 values of antibodies for blocking IL-5 release from Donor #727060: 0.578 nM

Molecular target: T2, rat IL-25 expressed with a C-terminal …
Test: SPR Biacore, antibody captured, 37C;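 as to 100 nM Monkey IL-25-MMH Bound (RU): biacore 4000 surface plasmon resonance biosensor measuring binding of IL-25-MMH to purified anti-IL-25 antibodies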;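 as to 100 nM Mouse IL-25-MMH Bound (RU): Real-time sensorgrams of IL-25-MMH binding to purified anti-IL-25 antibodies, rate constants obtained by fitting a 1:1 binding model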
Description: (§2) Equilibrium dissociation constants (KD values) for IL-25 binding to purified anti-IL-25 antibodies were determined using a real-time surface plasmon resonance biosensor assay on a Biacore 4000 instrument (GE Healthcare). […] All the IL-25 reagents were expressed with a C-terminal myc-myc-hexahistidine tag (referred to herein as “IL-25-MMH”). […] Kinetic association (kₐ) and dissociation (kd) rate constants were determined by fitting the real-time sensorgrams to a 1:1 binding model using Scrubber 2.0c curve fitting software.

How did the “100 nM Rat IL-25-MMH Bound (RU)” value turn out when B1 was run?
The value was 22 RU.

What about the Kd of the same binder?
The Kd was 24.6 nM.

And the koff?
Its koff is 0.00601 s⁻¹.

What about the kon of the same binder?
Its kon is 245000 M⁻¹ s⁻¹.

And the t½?
The t½ was 0.0317 h.

For B2, which “100 nM Rat IL-25-MMH Bound (RU)” value is on record?
The value was 41 RU.

What about the Kd of the same binder?
Its Kd is 0.72 nM.

And the koff?
Its koff is 0.000341 s⁻¹.

What about the kon of the same binder?
The kon was 474000 M⁻¹ s⁻¹.

And the t½?
The t½ was 0.567 h.

With B3 as the binder, how does the “100 nM Rat IL-25-MMH Bound (RU)” value read?
The value was 2 RU.

What does the source list for B4?
100 nM Rat IL-25-MMH Bound (RU): 49 RU; Kd: 0.377 nM; koff: 0.000181 s⁻¹; kon: 481000 M⁻¹ s⁻¹; t½: 1.07 h

Molecular target: T1, human IL-25 expressed with a C-terminal …
Test: competition ELISA, 2 nM hIL-25-MMH binding to coated hIL-17RB-hFc; (*) below theoretical bottom of the assay
Description: as §1

Which IC50 does the source give for B1 here?
Its IC50 is 0.32 nM.

With B2 as the binder, how does the IC50 read?
The IC50 was 0.92 nM.

B3 was tested. Which IC50 did it give?
Its IC50 is 0.2 nM.

With B4 as the binder, how does the IC50 read?
The IC50 was 0.53 nM.

Molecular target: T1, human IL-25 expressed with a C-terminal …
Test: cell-based or functional assay
Remark: another data set of the same source

With B1 as the binder, how does the “IC50, luciferase reporter cells, 5 pM hIL-25-MMH” value (“IC50 … 5 pM hIL-25-MMH” below) read?
Its value is 4.6e-10 M.

B2 was tested. Which “IC50 … 5 pM hIL-25-MMH” value did it give?
The value was 6.9e-10 M.

With B3 as the binder, how does the “IC50 … 5 pM hIL-25-MMH” value read?
Its value is 3.1e-11 M.

For B4, which “IC50 … 5 pM hIL-25-MMH” value is on record?
The value was 5.1e-10 M.

Molecular target: T3, monkey IL-25 expressed with a …
Test: cell-based or functional assay

B1 was tested. Which “IC50, luciferase reporter cells, 12 pM MfIL-25-MMH” value (shortened to “IC50 … 12 pM MfIL-25-MMH”) did it give?
Its value is 4e-10 M.

B2 was tested. Which “IC50 … 12 pM MfIL-25-MMH” value did it give?
The value was 3.5e-10 M.

How did the “IC50 … 12 pM MfIL-25-MMH” value turn out when B3 was run?
Its value is 2.2e-11 M.

For B4, which “IC50 … 12 pM MfIL-25-MMH” value is on record?
The value was 2.1e-10 M.

Molecular target: T4, mouse IL-25 expressed with a C-terminal …
Test: cell-based or functional assay

B1 was tested. Which “IC50, luciferase reporter cells, 10 pM mIL-25-MMH” value (shortened to “IC50 … 10 pM mIL-25-MMH”) did it give?
The value was 1.5e-08 M.

For B2, which “IC50 … 10 pM mIL-25-MMH” value is on record?
Its value is 4.3e-09 M.

How did the “IC50 … 10 pM mIL-25-MMH” value turn out when B4 was run?
Its value is 6.8e-10 M.

Molecular target: T4, mouse IL-25 expressed with a C-terminal …
Test: SPR Biacore, antibody captured, 25C;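 as to 100 nM Rat IL-25-MMH Bound (RU): purified anti-IL-25 antibodies were tested by real-time surface plasmon resonance on a Biacore 4000, with rate constants obtained from sensorgram fits to a 1:1 binding model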
Description: as §2

For B1, which “100 nM Mouse IL-25-MMH Bound (RU)” value is on record?
Its value is 20 RU.

What about the Kd of the same binder?
Its Kd is 7.05 nM.

What about the koff of the same binder?
The koff was 0.00104 s⁻¹.

And the kon?
Its kon is 148000 M⁻¹ s⁻¹.

And the t½?
Its t½ is 0.183 h.

Which results are given for B2?
100 nM Mouse IL-25-MMH Bound (RU): 22 RU; Kd: 2.67 nM; koff: 0.000149 s⁻¹; kon: 55700 M⁻¹ s⁻¹; t½: 1.3 h

Which results are given for B3?
100 nM Mouse IL-25-MMH Bound (RU): 0 RU; binding result: no binding (tested: 100 nM)

Which “100 nM Mouse IL-25-MMH Bound (RU)” value does the source give for B4 here?
Its value is 43 RU.

What about the Kd of the same binder?
The Kd was 1.17 nM.

And the koff?
The koff was 0.000145 s⁻¹.

And the kon?
Its kon is 124000 M⁻¹ s⁻¹.

What about the t½ of the same binder?
The t½ was 1.33 h.

Molecular target: T4, mouse IL-25 expressed with a C-terminal …
Test: SPR Biacore, antibody captured, 37C;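 as to 100 nM Monkey IL-25-MMH Bound (RU): biacore 4000 surface plasmon resonance biosensor measuring binding of IL-25-MMH to purified anti-IL-25 antibodies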;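 as to 100 nM Mouse IL-25-MMH Bound (RU): Real-time sensorgrams of IL-25-MMH binding to purified anti-IL-25 antibodies, rate constants obtained by fitting a 1:1 binding model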
Description: as §2

What does the source list for B1?
100 nM Mouse IL-25-MMH Bound (RU): 17 RU; Kd: 36.2 nM; koff: 0.00641 s⁻¹; kon: 177000 M⁻¹ s⁻¹; t½: 0.03 h

What does the source list for B2?
100 nM Mouse IL-25-MMH Bound (RU): 37 RU; Kd: 1.14 nM; koff: 0.000153 s⁻¹; kon: 134000 M⁻¹ s⁻¹; t½: 1.27 h

With B3 as the binder, how does the “100 nM Mouse IL-25-MMH Bound (RU)” value read?
The value was 2 RU.

Which results are given for B4?
100 nM Mouse IL-25-MMH Bound (RU): 47 RU; Kd: 0.441 nM; koff: 0.000178 s⁻¹; kon: 403000 M⁻¹ s⁻¹; t½: 1.08 h

Molecular target: T1, human IL-25 expressed with a C-terminal …
Test: BLI Octet, hIL-25-MMH captured on anti-Penta-His sensor, 25C
Description: Binding competition between anti-IL-25 monoclonal antibodies was determined using a real time, label-free bio-layer interferometry assay on an Octet QK384 biosensor (Pall ForteBio Corp.).
The biosensors were washed in HBST kinetics buffer in between every step of the experiment. The real-time binding response was monitored during the course of the experiment and the binding response at the end of every step was recorded.

B1 was tested. Which “50 ug/mL mAb-1 Binding (nm)” value did it give?
The value was 1.12 nm.

For B2, which “50 ug/mL mAb-1 Binding (nm)” value is on record?
The value was 1.13 nm.

With B3 as the binder, how does the “50 ug/mL mAb-1 Binding (nm)” value read?
Its value is 0.68 nm.

Which “50 ug/mL mAb-1 Binding (nm)” value does the source give for B4 here?
Its value is 1.59 nm.

Molecular target: T2, rat IL-25 expressed with a C-terminal …
Test: SPR Biacore, antibody captured, 25C;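 as to 100 nM Rat IL-25-MMH Bound (RU): purified anti-IL-25 antibodies were tested by real-time surface plasmon resonance on a Biacore 4000, with rate constants obtained from sensorgram fits to a 1:1 binding model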

B1 was tested. Which “100 nM Rat IL-25-MMH Bound (RU)” value did it give?
Its value is 23 RU.

What about the Kd of the same binder?
Its Kd is 2.42 nM.

And the koff?
Its koff is 0.000807 s⁻¹.

What about the kon of the same binder?
Its kon is 333000 M⁻¹ s⁻¹.

What about the t½ of the same binder?
Its t½ is 0.233 h.

B2 was tested. Which “100 nM Rat IL-25-MMH Bound (RU)” value did it give?
The value was 34 RU.

And the Kd?
The Kd was 1.07 nM.

What about the koff of the same binder?
The koff was 0.000164 s⁻¹.

What about the kon of the same binder?
The kon was 153000 M⁻¹ s⁻¹.

And the t½?
The t½ was 1.17 h.

Which “100 nM Rat IL-25-MMH Bound (RU)” value does the source give for B3 here?
Its value is 0 RU.

Does B3 bind?
Result: no binding (tested: 100 nM)

B4 was tested. Which “100 nM Rat IL-25-MMH Bound (RU)” value did it give?
Its value is 45 RU.

And the Kd?
The Kd was 0.81 nM.

And the koff?
Its koff is 0.000135 s⁻¹.

And the kon?
Its kon is 167000 M⁻¹ s⁻¹.

What about the t½ of the same binder?
Its t½ is 1.42 h.

Molecular target: T3, monkey IL-25 expressed with a …
Test: SPR Biacore, antibody captured, 37C;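 as to 100 nM Monkey IL-25-MMH Bound (RU): biacore 4000 surface plasmon resonance biosensor measuring binding of IL-25-MMH to purified anti-IL-25 antibodies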;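 as to 100 nM Mouse IL-25-MMH Bound (RU): Real-time sensorgrams of IL-25-MMH binding to purified anti-IL-25 antibodies, rate constants obtained by fitting a 1:1 binding model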
Description: as §2

Which results are given for B1?
100 nM Monkey IL-25-MMH Bound (RU): 49 RU; Kd: 0.189 nM; koff: 0.000231 s⁻¹; kon: 1.22e+06 M⁻¹ s⁻¹; t½: 0.833 h

B2 was tested. Which “100 nM Monkey IL-25-MMH Bound (RU)” value did it give?
Its value is 51 RU.

What about the Kd of the same binder?
Its Kd is 0.0685 nM.

And the koff?
Its koff is 8.07e-05 s⁻¹.

And the kon?
The kon was 1.18e+06 M⁻¹ s⁻¹.

And the t½?
The t½ was 2.38 h.

What does the source list for B3?
100 nM Monkey IL-25-MMH Bound (RU): 50 RU; Kd: 0.0244 nM; koff: 7.49e-05 s⁻¹; kon: 3.07e+06 M⁻¹ s⁻¹; t½: 2.57 h

How did the “100 nM Monkey IL-25-MMH Bound (RU)” value turn out when B4 was run?
The value was 59 RU.

What about the Kd of the same binder?
The Kd was 0.135 nM.

What about the koff of the same binder?
The koff was 9.01e-05 s⁻¹.

What about the kon of the same binder?
The kon was 668000 M⁻¹ s⁻¹.

And the t½?
Its t½ is 2.13 h.
